Assay results reported in patent publication US20250011363A1, “OPTIMIZED SHORTENED PEPTIDE THAT BINDS TO ACETYLCHOLINE RECEPTOR, AND USE THEREOF” (SKINMED CO., LTD., priority 2021, published 2025).

Target: acetylcholine receptor (Homo sapiens, UniProt P02708)
Assay: SPR binding affinity (RU) of optimized 5mer/6mer/7mer peptides, Examples 6-7
Settings: SPR, Resonance Units; 5mer Bottom sequence (bottom combinations); peptides tested at 10 μM
Protocol: Based on the frequencies of occurrence of the top 7 amino acids from Table 7 in Example 5, 600 peptides comprising these amino acids (top combinations) and those comprising the 13 less frequently occurring amino acids (bottom combinations) were synthesized for each series of 5mer, 6mer-1, and 6mer-2. The binding affinity of each sequence for the acetylcholine receptor was measured using Surface Plasmon Resonance (SPR) analysis method. The peptides were tested at a concentration of 10 μM. Additionally, the average binding affinities of the top and bottom combinations in each series are depicted in FIGS. 5-7.
Representative peptides identified in Example 6, two in each library, including 5mers (73, 311) and 6mers-1 (43, 210) and 6mers-2 (136, 233), were compared with the pre-optimized 6mer, 5mer-ND, and Synake.

Sequence of acetylcholine receptor (P02708 21-457): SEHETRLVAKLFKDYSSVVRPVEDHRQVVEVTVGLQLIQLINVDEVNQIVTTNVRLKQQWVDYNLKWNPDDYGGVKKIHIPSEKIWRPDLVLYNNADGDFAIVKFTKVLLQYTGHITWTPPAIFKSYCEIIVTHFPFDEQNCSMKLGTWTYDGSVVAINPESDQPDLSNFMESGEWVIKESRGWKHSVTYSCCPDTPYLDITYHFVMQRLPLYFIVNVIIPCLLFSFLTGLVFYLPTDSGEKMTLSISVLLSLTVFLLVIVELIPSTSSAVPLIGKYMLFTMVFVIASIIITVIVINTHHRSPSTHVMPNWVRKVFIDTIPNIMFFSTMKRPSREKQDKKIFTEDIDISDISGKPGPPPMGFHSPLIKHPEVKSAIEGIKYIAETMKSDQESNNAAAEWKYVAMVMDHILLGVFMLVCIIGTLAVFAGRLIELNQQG

5mer-901 (KCTNR) was tested. Which Binding affinity did it give?
Its Binding affinity is 30 Ru.

Which Binding affinity does the source give for 5mer-902 (REDPK) here?
Its Binding affinity is 23 Ru.

5mer-903 (RHHKR) was tested. Which Binding affinity did it give?
Its Binding affinity is 21 Ru.

How did the Binding affinity turn out when 5mer-904 (KPDPK) was run?
Its Binding affinity is 23 Ru.

How did the Binding affinity turn out when 5mer-905 (RPSPR) was run?
The Binding affinity was 30 Ru.

For 5mer-906 (RKHAK), which Binding affinity is on record?
Its Binding affinity is 31 Ru.

How did the Binding affinity turn out when 5mer-907 (KDSVR) was run?
The Binding affinity was 18 Ru.

Which Binding affinity does the source give for 5mer-908 (RCHFK) here?
Its Binding affinity is 25 Ru.

With 5mer-909 (RINVK) as the substance, how does the Binding affinity read?
The Binding affinity was 33 Ru.

Which Binding affinity does the source give for 5mer-910 (RPCFR) here?
Its Binding affinity is 17 Ru.

Which Binding affinity does the source give for 5mer-911 (REHGK) here?
The Binding affinity was 14 Ru.

With 5mer-912 (KKMGR) as the substance, how does the Binding affinity read?
The Binding affinity was 16 Ru.

5mer-913 (KHTFK) was tested. Which Binding affinity did it give?
Its Binding affinity is 13 Ru.

For 5mer-914 (RPTMR), which Binding affinity is on record?
The Binding affinity was 26 Ru.

Which Binding affinity does the source give for 5mer-915 (KMTHR) here?
Its Binding affinity is 28 Ru.

5mer-916 (RCHER) was tested. Which Binding affinity did it give?
The Binding affinity was 12 Ru.

For 5mer-917 (KCAPR), which Binding affinity is on record?
Its Binding affinity is 11 Ru.

5mer-918 (RNNVR) was tested. Which Binding affinity did it give?
The Binding affinity was 12 Ru.

How did the Binding affinity turn out when 5mer-919 (KNNIK) was run?
The Binding affinity was 32 Ru.

With 5mer-920 (KPKIK) as the substance, how does the Binding affinity read?
Its Binding affinity is 15 Ru.

How did the Binding affinity turn out when 5mer-921 (KKKFK) was run?
The Binding affinity was 21 Ru.

5mer-922 (RMWKR) was tested. Which Binding affinity did it give?
The Binding affinity was 14 Ru.

How did the Binding affinity turn out when 5mer-923 (KCWMK) was run?
The Binding affinity was 19 Ru.

Which Binding affinity does the source give for 5mer-924 (RNEKK) here?
The Binding affinity was 27 Ru.

With 5mer-925 (KDCFK) as the substance, how does the Binding affinity read?
The Binding affinity was 25 Ru.

Which Binding affinity does the source give for 5mer-926 (RNCWK) here?
The Binding affinity was 22 Ru.

For 5mer-927 (RDEDR), which Binding affinity is on record?
The Binding affinity was 19 Ru.

With 5mer-928 (KHMVR) as the substance, how does the Binding affinity read?
Its Binding affinity is 27 Ru.

5mer-929 (KYTFR) was tested. Which Binding affinity did it give?
Its Binding affinity is 28 Ru.

For 5mer-930 (RAWVR), which Binding affinity is on record?
The Binding affinity was 20 Ru.

Which Binding affinity does the source give for 5mer-931 (RITER) here?
The Binding affinity was 11 Ru.

5mer-932 (RTAWK) was tested. Which Binding affinity did it give?
Its Binding affinity is 27 Ru.

How did the Binding affinity turn out when 5mer-933 (RYMKK) was run?
Its Binding affinity is 27 Ru.

How did the Binding affinity turn out when 5mer-934 (KMMMR) was run?
The Binding affinity was 17 Ru.

For 5mer-935 (RETFK), which Binding affinity is on record?
Its Binding affinity is 32 Ru.

Which Binding affinity does the source give for 5mer-936 (RNHKR) here?
The Binding affinity was 29 Ru.

With 5mer-937 (KASNR) as the substance, how does the Binding affinity read?
The Binding affinity was 21 Ru.

How did the Binding affinity turn out when 5mer-938 (RIEFK) was run?
The Binding affinity was 18 Ru.

For 5mer-939 (KMHAR), which Binding affinity is on record?
The Binding affinity was 24 Ru.

How did the Binding affinity turn out when 5mer-940 (KCMGK) was run?
Its Binding affinity is 18 Ru.

With 5mer-941 (KNHHR) as the substance, how does the Binding affinity read?
The Binding affinity was 21 Ru.

5mer-942 (RPSDR) was tested. Which Binding affinity did it give?
The Binding affinity was 11 Ru.

With 5mer-943 (KDKGK) as the substance, how does the Binding affinity read?
The Binding affinity was 12 Ru.

With 5mer-944 (RYEFK) as the substance, how does the Binding affinity read?
The Binding affinity was 25 Ru.

5mer-945 (RYEKR) was tested. Which Binding affinity did it give?
Its Binding affinity is 23 Ru.

Which Binding affinity does the source give for 5mer-946 (KYPWR) here?
The Binding affinity was 32 Ru.

Which Binding affinity does the source give for 5mer-947 (KDWIR) here?
The Binding affinity was 27 Ru.

Which Binding affinity does the source give for 5mer-948 (KDSFK) here?
The Binding affinity was 18 Ru.

5mer-949 (KMKMK) was tested. Which Binding affinity did it give?
Its Binding affinity is 26 Ru.

5mer-950 (KDADR) was tested. Which Binding affinity did it give?
The Binding affinity was 22 Ru.

Which Binding affinity does the source give for 5mer-951 (RYMGR) here?
Its Binding affinity is 18 Ru.

Which Binding affinity does the source give for 5mer-952 (KTMHK) here?
Its Binding affinity is 12 Ru.

How did the Binding affinity turn out when 5mer-953 (RKMAR) was run?
Its Binding affinity is 23 Ru.

For 5mer-954 (KTEVK), which Binding affinity is on record?
Its Binding affinity is 23 Ru.

How did the Binding affinity turn out when 5mer-955 (KNADK) was run?
The Binding affinity was 14 Ru.

Which Binding affinity does the source give for 5mer-956 (KPTWK) here?
Its Binding affinity is 19 Ru.

How did the Binding affinity turn out when 5mer-957 (RDCER) was run?
Its Binding affinity is 30 Ru.

How did the Binding affinity turn out when 5mer-958 (RKWKR) was run?
The Binding affinity was 11 Ru.

5mer-959 (KPNMK) was tested. Which Binding affinity did it give?
Its Binding affinity is 29 Ru.

With 5mer-960 (RNPGK) as the substance, how does the Binding affinity read?
The Binding affinity was 14 Ru.

With 5mer-961 (KIANR) as the substance, how does the Binding affinity read?
Its Binding affinity is 32 Ru.

Which Binding affinity does the source give for 5mer-962 (RIWKR) here?
The Binding affinity was 23 Ru.

How did the Binding affinity turn out when 5mer-963 (RAPNK) was run?
Its Binding affinity is 24 Ru.

Same assay, conditions: SPR; peptides tested at 10 μM; 5mer Bottom sequence

5mer-893 (RIKIK) was tested. Which Binding affinity did it give?
The Binding affinity was 18 Ru.

5mer-894 (KMSPR) was tested. Which Binding affinity did it give?
The Binding affinity was 18 Ru.

With 5mer-895 (RFTKK) as the substance, how does the Binding affinity read?
The Binding affinity was 18 Ru.

How did the Binding affinity turn out when 5mer-896 (RYHWR) was run?
Its Binding affinity is 27 Ru.

Which Binding affinity does the source give for 5mer-897 (KFCER) here?
Its Binding affinity is 30 Ru.

With 5mer-898 (RYCMR) as the substance, how does the Binding affinity read?
Its Binding affinity is 20 Ru.

5mer-899 (RYTFR) was tested. Which Binding affinity did it give?
The Binding affinity was 31 Ru.

How did the Binding affinity turn out when 5mer-900 (RHSVK) was run?
The Binding affinity was 29 Ru.
